From paper PMC7367873, “Dissecting the sequence determinants for dephosphorylation by the catalytic subunits of phosphatases PP1 and PP2A” (Nature Communications, 2020)

B1: BST2 (protein, UniProt Q10589 1-161, looked up)
Bone marrow stromal antigen 2: MASTSYDYCRVPMEDGDKRCKLLLGIGILVLLIIVILGVPLIIFTIKANSEACRDGLRAVMECRNVTHLLQQELTEAQKGFQDVEAQAATCNHTVMALMASLDAEKAQGQKKVEELEGEITTLNHKLQDASAEVERLRRENQVLSVRIADKKYYPSSQDSS
B2: PHF6 (protein, UniProt Q8IWS0 2-365, looked up)
PHD finger protein 6: SSSVEQKKGPTRQRKCGFCKSNRDKECGQLLISENQKVAAHHKCMLFSSALVSSHSDNESLGGFSIEDVQKEIKRGTKLMCSLCHCPGATIGCDVKTCHRTYHYHCALHDKAQIREKPSQGIYMVYCRKHKKTAHNSEADLEESFNEHELEPSSPKSKKKSRKGRPRKTNFKGLSEDTRSTSSHGTDEMESSSYRDRSPHRSSPSDTRPKCGFCHVGEEENEARGKLHIFNAKKAAAHYKCMLFSSGTVQLTTTSRAEFGDFDIKTVLQEIKRGKRMKCTLCSQPGATIGCEIKACVKTYHYHCGVQDKAKYIENMSRGIYKLYCKNHSGNDERDEEDEERESKSRGKVEIDQQQLTQQQLNGN
B3: TUBB6 (protein, UniProt Q9BUF5 1-446, looked up)
Tubulin beta-6 chain: MREIVHIQAGQCGNQIGTKFWEVISDEHGIDPAGGYVGDSALQLERINVYYNESSSQKYVPRAALVDLEPGTMDSVRSGPFGQLFRPDNFIFGQTGAGNNWAKGHYTEGAELVDAVLDVVRKECEHCDCLQGFQLTHSLGGGTGSGMGTLLISKIREEFPDRIMNTFSVMPSPKVSDTVVEPYNATLSVHQLVENTDETYCIDNEALYDICFRTLKLTTPTYGDLNHLVSATMSGVTTSLRFPGQLNADLRKLAVNMVPFPRLHFFMPGFAPLTSRGSQQYRALTVPELTQQMFDARNMMAACDPRHGRYLTVATVFRGPMSMKEVDEQMLAIQSKNSSYFVEWIPNNVKVAVCDIPPRGLKMASTFIGNSTAIQELFKRISEQFSAMFRRKAFLHWFTGEGMDEMEFTEAESNMNDLVSEYQQYQDATANDGEEAFEDEEEEIDG
B4: HNRNPM (protein, UniProt P52272 2-730, looked up)
Heterogeneous nuclear …: AAGVEAAAEVAATEIKMEEESGAPGVPSGNGAPGPKGEGERPAQNEKRKEKNIKRGGNRFEPYANPTKRYRAFITNIPFDVKWQSLKDLVKEKVGEVTYVELLMDAEGKSRGCAVVEFKMEESMKKAAEVLNKHSLSGRPLKVKEDPDGEHARRAMQKVMATTGGMGMGPGGPGMITIPPSILNNPNIPNEIIHALQAGRLGSTVFVANLDYKVGWKKLKEVFSMAGVVVRADILEDKDGKSRGIGTVTFEQSIEAVQAISMFNGQLLFDRPMHVKMDERALPKGDFFPPERPQQLPHGLGGIGMGLGPGGQPIDANHLNKGIGMGNIGPAGMGMEGIGFGINKMGGMEGPFGGGMENMGRFGSGMNMGRINEILSNALKRGEIIAKQGGGGGGGSVPGIERMGPGIDRLGGAGMERMGAGLGHGMDRVGSEIERMGLVMDRMGSVERMGSGIERMGPLGLDHMASSIERMGQTMERIGSGVERMGAGMGFGLERMAAPIDRVGQTIERMGSGVERMGPAIERMGLSMERMVPAGMGAGLERMGPVMDRMATGLERMGANNLERMGLERMGANSLERMGLERMGANSLERMGPAMGPALGAGIERMGLAMGGGGGASFDRAIEMERGNFGGSFAGSFGGAGGHAPGVARKACQIFVRNLPFDFTWKMLKDKFNECGHVLYADIKMENGKSKGCGVVKFESPEVAERACRMMNGMKLSGREIDVRIDRNA
B5: SLC1A5 (protein, UniProt Q15758 1-541, looked up)
Neutral amino acid …: MVADPPRDSKGLAAAEPTANGGLALASIEDQGAAAGGYCGSRDQVRRCLRANLLVLLTVVAVVAGVALGLGVSGAGGALALGPERLSAFVFPGELLLRLLRMIILPLVVCSLIGGAASLDPGALGRLGAWALLFFLVTTLLASALGVGLALALQPGAASAAINASVGAAGSAENAPSKEVLDSFLDLARNIFPSNLVSAAFRSYSTTYEERNITGTRVKVPVGQEVEGMNILGLVVFAIVFGVALRKLGPEGELLIRFFNSFNEATMVLVSWIMWYAPVGIMFLVAGKIVEMEDVGLLFARLGKYILCCLLGHAIHGLLVLPLIYFLFTRKNPYRFLWGIVTPLATAFGTSSSSATLPLMMKCVEENNGVAKHISRFILPIGATVNMDGAALFQCVAAVFIAQLSQQSLDFVKIITILVTATASSVGAAGIPAGGVLTLAIILEAVNLPVDHISLILAVDWLVDRSCTVLNVEGDALGAGLLQNYVDRTESRSTEPELIQVKSELPLDPLPVPTEEGNPLLKHYRGPAGDATVASEKESVM
B6: SPECC1 (protein, UniProt Q5M775 1-1068, looked up)
Cytospin-B: MRSAAKPWNPAIRAGGHGPDRVRPLPAASSGMKSSKSSTSLAFESRLSRLKRASSEDTLNKPGSTAASGVVRLKKTATAGAISELTESRLRSGTGAFTTTKRTGIPAPREFSVTVSRERSVPRGPSNPRKSVSSPTSSNTPTPTKHLRTPSTKPKQENEGGEKAALESQVRELLAEAKAKDSEINRLRSELKKYKEKRTLNAEGTDALGPNVDGTSVSPGDTEPMIRALEEKNKNFQKELSDLEEENRVLKEKLIYLEHSPNSEGAASHTGDSSCPTSITQESSFGSPTGNQMSSDIDEYKKNIHGNALRTSGSSSSDVTKASLSPDASDFEHITAETPSRPLSSTSNPFKSSKCSTAGSSPNSVSELSLASLTEKIQKMEENHHSTAEELQATLQELSDQQQMVQELTAENEKLVDEKTILETSFHQHRERAEQLSQENEKLMNLLQERVKNEEPTTQEGKIIELEQKCTGILEQGRFEREKLLNIQQQLTCSLRKVEEENQGALEMIKRLKEENEKLNEFLELERHNNNMMAKTLEECRVTLEGLKMENGSLKSHLQGEKQKATEASAVEQTAESCEVQEMLKVARAEKDLLELSCNELRQELLKANGEIKHVSSLLAKVEKDYSYLKEICDHQAEQLSRTSLKLQEKASESDAEIKDMKETIFELEDQVEQHRAVKLHNNQLISELESSVIKLEEQKSDLERQLKTLTKQMKEETEEWRRFQADLQTAVVVANDIKCEAQQELRTVKRKLLEEEEKNARLQKELGDVQGHGRVVTSRAAPPPVDEEPESSEVDAAGRWPGVCVSRTSPTPPESATTVKSLIKSFDLGRPGGAGQNISVHKTPRSPLSGIPVRTAPAAAVSPMQRHSTYSSVRPASRGVTQRLDLPDLPLSDILKGRTETLKPDPHLRKSPSLESLSRPPSLGFGDTRLLSASTRAWKPQSKLSVERKDPLAALAREYGGSKRNALLKWCQKKTQGYANIDITNFSSSWSDGLAFCALLHTYLPAHIPYQELNSQEKKRNLLLAFEAAESVGIKPSLELSEMLYTDRPDWQSVMQYVAQIYKYFET
B7: FARP1 (protein, UniProt Q9Y4F1 1-1045, looked up)
FERM, ARHGEF and pleckstrin …: MGEIEQRPTPGSRLGAPENSGISTLERGQKPPPTPSGKLVSIKIQMLDDTQEAFEVPQRAPGKVLLDAVCNHLNLVEGDYFGLEFPDHKKITVWLDLLKPIVKQIRRPKHVVVKFVVKFFPPDHTQLQEELTRYLFALQVKQDLAQGRLTCNDTSAALLISHIVQSEIGDFDEALDREHLAKNKYIPQQDALEDKIVEFHHNHIGQTPAESDFQLLEIARRLEMYGIRLHPAKDREGTKINLAVANTGILVFQGFTKINAFNWAKVRKLSFKRKRFLIKLRPDANSAYQDTLEFLMASRDFCKSFWKICVEHHAFFRLFEEPKPKPKPVLFSRGSSFRFSGRTQKQVLDYVKEGGHKKVQFERKHSKIHSIRSLASQPTELNSEVLEQSQQSTSLTFGEGAESPGGQSCRRGKEPKVSAGEPGSHPSPAPRRSPAGNKQADGAASAPTEEEEEVVKDRTQQSKPQPPQPSTGSLTGSPHLSELSVNSQGGVAPANVTLSPNLSPDTKQASPLISPLLNDQACPRTDDEDEGRRKRFPTDKAYFIAKEVSTTERTYLKDLEVITSWFQSTVSKEDAMPEALKSLIFPNFEPLHKFHTNFLKEIEQRLALWEGRSNAQIRDYQRIGDVMLKNIQGMKHLAAHLWKHSEALEALENGIKSSRRLENFCRDFELQKVCYLPLNTFLLRPLHRLMHYKQVLERLCKHHPPSHADFRDCRAALAEITEMVAQLHGTMIKMENFQKLHELKKDLIGIDNLVVPGREFIRLGSLSKLSGKGLQQRMFFLFNDVLLYTSRGLTASNQFKVHGQLPLYGMTIEESEDEWGVPHCLTLRGQRQSIIVAASSRSEMEKWVEDIQMAIDLAEKSSSPAPEFLASSPPDNKSPDEATAADQESEDDLSASRTSLERQAPHRGNTMVHVCWHRNTSVSMVDFSIAVENQLSGNLLRKFKNSNGWQKLWVVFTNFCLFFYKSHQDNHPLASLPLLGYSLTIPSESENIQKDYVFKLHFKSHVYYFRAESEYTFERWMEVIRSATSSASRPHVLSHKESLVY
B8: DNAJC10 (protein, UniProt Q8IXB1 33-793, looked up)
DnaJ homolog subfamily C …: DQDFYSLLGVSKTASSREIRQAFKKLALKLHPDKNPNNPNAHGDFLKINRAYEVLKDEDLRKKYDKYGEKGLEDNQGGQYESWNYYRYDFGIYDDDPEIITLERREFDAAVNSGELWFVNFYSPGCSHCHDLAPTWRDFAKEVDGLLRIGAVNCGDDRMLCRMKGVNSYPSLFIFRSGMAPVKYHGDRSKESLVSFAMQHVRSTVTELWTGNFVNSIQTAFAAGIGWLITFCSKGGDCLTSQTRLRLSGMLDGLVNVGWMDCATQDNLCKSLDITTSTTAYFPPGATLNNKEKNSILFLNSLDAKEIYLEVIHNLPDFELLSANTLEDRLAHHRWLLFFHFGKNENSNDPELKKLKTLLKNDHIQVGRFDCSSAPDICSNLYVFQPSLAVFKGQGTKEYEIHHGKKILYDILAFAKESVNSHVTTLGPQNFPANDKEPWLVDFFAPWCPPCRALLPELRRASNLLYGQLKFGTLDCTVHEGLCNMYNIQAYPTTVVFNQSNIHEYEGHHSAEQILEFIEDLMNPSVVSLTPTTFNELVTQRKHNEVWMVDFYSPWCHPCQVLMPEWKRMARTLTGLINVGSIDCQQYHSFCAQENVQRYPEIRFFPPKSNKAYHYHSYNGWNRDAYSLRIWGLGFLPQVSTDLTPQTFSEKVLQGKNHWVIDFYAPWCGPCQNFAPEFELLARMIKGKVKAGKVDCQAYAQTCQKAGIRAYPTVKFYFYERAKRNFQEEQINTRDAKAIAALISEKLETLRNQGKRNKDEL
B9: SNRPA1 (protein, UniProt P09661 2-255, looked up)
U2 small nuclear …: VKLTAELIEQAAQYTNAVRDRELDLRGYKIPVIENLGATLDQFDAIDFSDNEIRKLDGFPLLRRLKTLLVNNNRICRIGEGLDQALPCLTELILTNNSLVELGDLDPLASLKSLTYLSILRNPVTNKKHYRLYVIYKVPQVRVLDFQKVKLKERQEAEKMFKGKRGAQLAKDIARRSKTFNPGAGLPTDKKKGGPSPGDVEAIKNAIANASTLAEVERLKGLLQSGQIPGRERRSGPTDDGEEEMEEDTVTNGS

These molecules were tested on GFP-14-3-3β and its binding proteins (assay: GFP-14-3-3β co-IP with LC-MS/MS label-free quantification, untreated versus PP1c-treated). Conditions: log2 difference; pairwise comparison PP1 vs untreated, label-free quantification, 3 replicates each.
Design: species or system human
In the case of B1, the “Difference (log2), PP1 vs untreated” value is reported as 1.808.

Same assay, conditions: pairwise comparison PP1 vs untreated
With B2 the “Difference (log2), PP1 vs untreated” value was 0.0136 log2.
B3 was tested, and the “Difference (log2), PP1 vs untreated” value was -0.03516 log2.
In the case of B4, the “Difference (log2), PP1 vs untreated” value is reported as -0.01052 log2.
For B5, the “Difference (log2), PP1 vs untreated” value was -0.02668 log2.
For B6, the “Difference (log2), PP1 vs untreated” value was -0.005819 log2.
In the case of B7, the “Difference (log2), PP1 vs untreated” value is reported as -0.03585 log2.
With B8 the “Difference (log2), PP1 vs untreated” value was -0.01679 log2.
For B9, the “Difference (log2), PP1 vs untreated” value was -0.04086 log2.

What follows are molecules tested on GFP-14-3-3β (assay: GFP-14-3-3β co-IP with LC-MS/MS, untreated GFP-14-3-3β versus GFP control (14-3-3 interactome)). Conditions: log2 difference; pairwise comparison untreated vs GFP, label-free quantification, 3 replicates each.
Format: binding, human
With B1 the “Difference (log2), untreated vs GFP” value was -3.2427.

Same assay, conditions: pairwise comparison untreated vs GFP
B2 was tested, and the “Difference (log2), untreated vs GFP” value was 0.8956 log2.
For B3, the “Difference (log2), untreated vs GFP” value was -0.8713 log2.
B4 was tested, and the “Difference (log2), untreated vs GFP” value was 0.1311 log2.
For B5, the “Difference (log2), untreated vs GFP” value was 0.7589 log2.
B6 was tested, and the “Difference (log2), untreated vs GFP” value was 0.2064 log2.
B7 was tested, and the “Difference (log2), untreated vs GFP” value was 0.5364 log2.
For B8, the “Difference (log2), untreated vs GFP” value was 0.1892 log2.
For B9, the “Difference (log2), untreated vs GFP” value was 0.8199 log2.
